The values below come from patent publication US20110305711A1 (Eli Lilly, published 2011).

One may read the Kd as the free concentration of one partner at which half of the binding sites on the other are occupied at equilibrium, for simple one-to-one binding. A lower Kd goes with a tighter complex.

The target of test [1] is Human CGRP (human) (UniProt P06881). Briefly: SPR, Biacore T100, 37 C. For orientation: SPR reads the build-up and loss of mass on a sensor chip optically.
Test [2] shares this target. Put plainly: SPR, Biacore T100, 37 C, antibody captured on protein A, CGRP as analyte; n=1.
Test [3] has the same target. Briefly: SPR, Biacore T100, 37 C, antibody captured on protein A, CGRP as analyte; mean ± SD, n=6.
Test [4] addresses T1, human α-CGRP (Bachem H1470) (human, UniProt P06881 83-119).
T1 peptide (looked up): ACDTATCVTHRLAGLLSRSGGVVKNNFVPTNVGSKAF
Briefly: cell-based or functional assay.

Test [5] deals with Human CGRP (human) (UniProt P06881). Briefly: SPR, Biacore T100, 37 C, antibody captured on protein A, CGRP as analyte; mean ± SD, n=2.
The target is the same in test [6]. Put plainly: SPR, Biacore T100, 37 C, antibody captured on protein A, CGRP as analyte; mean ± SD, n=4.
The target is the same in test [7]. Briefly: SPR, Biacore T100, 37 C, antibody captured on protein A, CGRP as analyte; mean ± SD, n=3.

B1: Antibody I (antibody, human IgG4 S228P, kappa, F234A L235A, V domains shown)
VH: QVQLVQSGAEVKKPGASVKVSCKASGYTFGNYWMQWVRQAPGQGLEWMGAIYEGTGDTRYIQKFAGRVTMTRDTSTSTVYMELSSLRSEDTAVYYCARLSDYVSGFSYWGQGTLVTVSS
VL: DIQMTQSPSSLSASVGDRVTITCRASQDIDNYLNWYQQKPGKAPKLLIYYTSEYHSGVPSRFSGSGSGTDFTFTISSLQPEDIATYYCQQGDALPPTFGQGTKLEIKR
Take B1: the Kd was less than 200000 nM in the test with Human CGRP (human) [1] and 0.19 nM with Human CGRP (human) [2].

B2: Antibody III (antibody, human IgG4 S228P, kappa, F234A L235A, V domains shown)
VH: QVQLVQSGAEVKKPGSSVKVSCKASGYTFGNYWMQWVRQAPGQGLEWMGAIYEGTGKTVYIQKFADRVTITADKSTSTAYMELSSLRSEDTAVYYCARLSDYVSGFGYWGQGTTVTVSS
VL: DIQMTQSPSSLSASVGDRVTITCRASKDISKYLNWYQQKPGKAPKLLIYYTSGYHSGVPSRFSGSGSGTDFTLTISSLQPEDFATYYCQQGDALPPTFGGGTKVEIKR
Regarding B2, the results for the Kd with Human CGRP (human) [1] and in the test with Human CGRP (human) [3] were less than 200000 nM and 0.031 nM, respectively. Further, in test [4], the “inhibition of CGRP induced cAMP formation in SK-N-MC cells (IC50)” value was 0.41 nM.

B3: Antibody V (antibody, human IgG4 S228P, kappa, F234A L235A, V domains shown)
VH: QVQLVQSGAEVKKPGSSVKVSCKASGYTFGNYWMQWVRQAPGQGLEWMGAIYEGTGKTVYIQKFAGRVTITADKSTSTAYMELSSLRSEDTAVYYCARLSDYVSGFGYWGQGTTVTVSS
VL: DIQMTQSPSSLSASVGDRVTITCRASQDIDKYLNWYQQKPGKAPKLLIYYTSGYHSGVPSRFSGSGSGTDFTLTISSLQPEDFATYYCQQGDALPPTFGGGTKVEIKR
Turning to B3, the Kd with Human CGRP (human) [1] was less than 200000 nM; with Human CGRP (human) [5], 0.024 nM.

B4: Antibody IV (antibody, human IgG4 S228P, kappa, F234A L235A, V domains shown)
VH: QVQLVQSGAEVKKPGASVKVSCKASGYTFGNYWMQWVRQAPGQGLEWMGAIYEGTGKTVYIQKFAGRVTMTRDTSTSTVYMELSSLRSEDTAVYYCARLSDYVSGFGYWGQGTLVTVSS
VL: DIQMTQSPSSLSASVGDRVTITCRASRPIDKYLNWYQQKPGKAPKLLIYYTSEYHSGVPSRFSGSGSGTDFTFTISSLQPEDIATYYCQQGDALPPTFGQGTKLEIKR
Consider B4, for which the figures for the Kd with Human CGRP (human) [1] and in the test with Human CGRP (human) [6] were less than 200000 nM and 0.024 nM, respectively.

B5: Antibody II (antibody, human IgG4 S228P, kappa, F234A L235A, V domains shown)
VH: QVQLVQSGAEVKKPGASVKVSCKASGYTFGNYWMQWVRQAPGQGLEWMGAIYEGTGKTVYIQKFAGRVTMTRDTSTSTVYMELSSLRSEDTAVYYCARLSDYVSGFSYWGQGTLVTVSS
VL: DIQMTQSPSSLSASVGDRVTITCRASQDIDNYLNWYQQKPGKAPKLLIYYTSEYHSGVPSRFSGSGSGTDFTFTISSLQPEDIATYYCQQGDALPPTFGQGTKLEIKR
Consider B5, for which the dissociation constant Kd with Human CGRP (human) [7] was 0.026 nM; with Human CGRP (human) [1], less than 200000 nM.

B6: Antibody G1 (antibody, V domains shown)
VH: EVQLVESGGGLVQPGGSLRLSCAASGFTFSNYWISWVRQAPGKGLEWVAEIRSESDASATHYAEAVKGRFTISRDNAKNSLYLQMNSLRAEDTAVYYCLAYFDYGLAIQNYWGQGTLVTVSS
VL: EIVLTQSPATLSLSPGERATLSCKASKRVTTYVSWYQQKPGQAPRLLIYGASNRYLGIPARFSGSGSGTDFTLTISSLEPEDFAVYYCSQSYNYPYTFGQGTKLEIK
B6: the “inhibition of CGRP induced cAMP formation in SK-N-MC cells (IC50)” value in test [4] turned out to be 5.36 nM.
